Test results as given in article PMC2921341, “Interaction of Serum- and Glucocorticoid Regulated Kinase 1 (SGK1) with the WW-Domains of Nedd4-2 Is Required for Epithelial Sodium Channel Regulation” (PLoS ONE, 2010).

What was measured:
[1] = target: βENaC PY motif peptide (Homo sapiens) (UniProt P51168); settings: cited from earlier work
[2] = target: SGK PY-motif peptide (human); test: SPR; BIAcore 2000; peptide immobilised on Sensor Chip CM5 by amine chemistry; isolated WW-domains injected at 20 µl/min in HBS-EP; KD estimated from steady state equilibrium responses
[3] = target: βhENaC PY-motif peptide (human); test: as above

Nedd4 WW2-4, sequence (P46934 767-925): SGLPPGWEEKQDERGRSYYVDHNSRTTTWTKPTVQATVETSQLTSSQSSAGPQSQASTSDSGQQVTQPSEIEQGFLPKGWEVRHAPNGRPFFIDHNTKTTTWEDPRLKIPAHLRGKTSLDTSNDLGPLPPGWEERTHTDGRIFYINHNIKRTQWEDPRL

Row | Substance | Kd [1] [µM] | Kd [2] [µM] | Kd [3] [µM]
1 | Nedd4 WW2-4 (from UniProt P46934) | 65 |  | 
2 | Nedd4-2 WW3 (isolated WW-domain, GST removed) (domain or fragment) |  | 250 | 11.1
